Literature values, collected in paper PMC6347146.

Biological target: IL-21R (Homo sapiens) (UniProt Q9HBE5)
Sequence of UniProt Q9HBE5 (Q9HBE5 20-232): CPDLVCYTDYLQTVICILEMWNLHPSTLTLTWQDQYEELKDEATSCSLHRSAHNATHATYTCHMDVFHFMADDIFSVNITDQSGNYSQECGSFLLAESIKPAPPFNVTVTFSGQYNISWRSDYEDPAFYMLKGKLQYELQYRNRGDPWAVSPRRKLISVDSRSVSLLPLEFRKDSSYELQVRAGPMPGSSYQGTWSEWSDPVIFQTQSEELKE

- Kd: 0.07 nM
Substance: IL-21 (from UniProt Q9HBE4)
